Measured values as given in publication PMC9352680, “A comprehensive thermodynamic model for RNA binding by the Saccharomyces cerevisiae Pumilio protein PUF4”.
Numbering of substitutions follows the chain as printed. Names and notes keep the numbering of the source.

B1: Ic_S4_P5E.1_K5.1_C5.1_H5.1_A5.1_[T5G]_[A7T]_F5.1_[T8C]_[A10T]_T5.1 (ssRNA)
RNA: UUUGACAACUGAUCGUUCUUUCUUGUAGUUCUUUUCUUUCUCGAUCAGUUGUCUUU
B2: Ic_S4_P5E.1_K5.1_C5.1_H5.1_A5.1_[T6A]_[A7T]_F5.1_[T8A]_[T9C]_[A10G]_T5.1 (ssRNA)
RNA: B1 RNA with G28U, U29A, C31A, U32C, U33G
B3: Ic_S4_P5E.1_K5.1_C5.1_H5.1_A5.1_[T5A]_[T6C]_[A7T]_F5.1_[T8C]_[T9C]_[A10C]_T5.1 (ssRNA)
RNA: B1 RNA with G28A, U29C, U32C, U33C
B4: Ic_S4_P5E.1_K5.1_C5.1_H5.1_A5.1_[T6C]_F5.1_[T8G]_[A10C]_T5.1 (ssRNA)
RNA: B1 RNA with G28U, U29C, U30A, C31G, U33C
B5: Ic_S4_P5E.1_K5.1_C5.1_H5.1_A5.1_[T5A]_[T6A]_[A7T]_F5.1_[T8A]_[T9C]_[A10G]_T5.1 (ssRNA)
RNA: B1 RNA with G28A, U29A, C31A, U32C, U33G
B6: Ic_S4_P5E.1_K5.1_C5.1_H5.1_A5.1_[T5A]_[T6C]_[A7C]_F5.1_[A10T]_T5.1 (ssRNA)
RNA: B1 RNA with G28A, U29C, U30C, C31U
B7: Ic_S4_P5E.1_K5.1_C5.1_H5.1_A5.1_[T5G]_[T6C]_[A7T]_F5.1_[T8C]_T5.1 (ssRNA)
RNA: B1 RNA with U29C, U33A
B8: Ic_S4_P5E.1_K5.1_C5.1_H5.1_A5.1_[T5A]_[T6A]_F5.1_[T8C]_[T9A]_[A10C]_T5.1 (ssRNA)
RNA: B1 RNA with G28A, U29A, U30A, U32A, U33C
B9: Ic_S4_P5E.1_K5.1_C5.1_H5.1_A5.1_[A7T]_F5.1_[T8A]_[T9A]_T5.1 (ssRNA)
RNA: B1 RNA with G28U, C31A, U32A, U33A
B10: Ic_S4_P5E.1_K5.1_C5.1_H5.1_A5.1_[T5C]_[T6A]_[A7T]_F5.1_[T8A]_[T9A]_[A10C]_T5.1 (ssRNA)
RNA: B1 RNA with G28C, U29A, C31A, U32A, U33C
B11: Ic_S4_P5E.1_K5.1_C5.1_H5.1_A5.1_[T6C]_[A7C]_F5.1_[T8A]_[T9G]_[A10C]_T5.1 (ssRNA)
RNA: B1 RNA with G28U, U29C, U30C, C31A, U32G, U33C
B12: Ic_S4_P5E.1_K5.1_C5.1_H5.1_A5.1_[T5A]_[T6A]_[A7T]_F5.1_[T9A]_T5.1 (ssRNA)
RNA: B1 RNA with G28A, U29A, C31U, U32A, U33A
B13: Ic_S4_P5E.1_K5.1_C5.1_H5.1_A5.1_[T5A]_[A7T]_F5.1_[T8A]_[A10C]_T5.1 (ssRNA)
RNA: B1 RNA with G28A, C31A, U33C
B14: Ic_S4_P5E.1_K5.1_C5.1_H5.1_A5.1_[T6A]_[A7G]_F5.1_[T8C]_[T9A]_[A10T]_T5.1 (ssRNA)
RNA: B1 RNA with G28U, U29A, U30G, U32A
B15: Ic_S4_P5E.1_K5.1_C5.1_H5.1_A5.1_[A7G]_F5.1_[T8C]_[T9C]_[A10T]_T5.1 (ssRNA)
RNA: B1 RNA with G28U, U30G, U32C
B16: Ic_S4_P5E.1_K5.1_C5.1_H5.1_A5.1_[T5C]_[T6G]_[A7C]_F5.1_[T9A]_[A10C]_T5.1 (ssRNA)
RNA: B1 RNA with G28C, U29G, U30C, C31U, U32A, U33C
B17: Ic_S4_P5E.1_K5.1_C5.1_H5.1_A5.1_[T6G]_[A7G]_F5.1_[T8C]_[A10C]_T5.1 (ssRNA)
RNA: B1 RNA with G28U, U29G, U30G, U33C
B18: Ic_S4_P5E.1_K5.1_C5.1_H5.1_A5.1_[T5C]_F5.1_[T8A]_[T9C]_[A10C]_T5.1 (ssRNA)
RNA: B1 RNA with G28C, U30A, C31A, U32C, U33C
B19: Ic_S4_P5E.1_K5.1_C5.1_H5.1_A5.1_[T6A]_[A7T]_F5.1_[T8C]_[T9C]_[A10T]_T5.1 (ssRNA)
RNA: B1 RNA with G28U, U29A, U32C
B20: Ic_S4_P5E.1_K5.1_C5.1_H5.1_A5.1_[A7C]_F5.1_[T9G]_[A10G]_T5.1 (ssRNA)
RNA: B1 RNA with G28U, U30C, C31U, U32G, U33G
B21: Ic_S4_P5E.1_K5.1_C5.1_H5.1_A5.1_[T6G]_[A7T]_F5.1_[T8A]_[T9A]_T5.1 (ssRNA)
RNA: B1 RNA with G28U, U29G, C31A, U32A, U33A
B22: Ic_S4_P5E.1_K5.1_C5.1_H5.1_A5.1_[T5G]_[A7C]_F5.1_[T9C]_[A10G]_T5.1 (ssRNA)
RNA: B1 RNA with U30C, C31U, U32C, U33G
B23: Ic_S4_P5E.1_K5.1_C5.1_H5.1_A5.1_[T5A]_[T6C]_[A7T]_F5.1_[T8A]_[T9A]_T5.1 (ssRNA)
RNA: B1 RNA with G28A, U29C, C31A, U32A, U33A
B24: Ic_S4_P5E.1_K5.1_C5.1_H5.1_A5.1_[T6A]_[A7T]_F5.1_[T8A]_[T9A]_[A10T]_T5.1 (ssRNA)
RNA: B1 RNA with G28U, U29A, C31A, U32A

biological target: T1, PUF4 RNA-binding domain (Saccharomyces cerevisiae, UniProt P25339 537-888); assay: Mg; RNA-MaP; 20 mM Na-HEPES pH 7.4, 30 mM KOAc, 0.75 mM MgCl2, 0.1% Tween-20, 5% glycerol, 0.1 mg/mL BSA, 2 mM DTT; 25 C; 0.0125-409.6 nM protein; conditions: tags: N-His6-TEV cleaved; C-SNAP kept, Cy3B-labelled; label: tethered on chip by stalled RNA polymerase
T1 sequence: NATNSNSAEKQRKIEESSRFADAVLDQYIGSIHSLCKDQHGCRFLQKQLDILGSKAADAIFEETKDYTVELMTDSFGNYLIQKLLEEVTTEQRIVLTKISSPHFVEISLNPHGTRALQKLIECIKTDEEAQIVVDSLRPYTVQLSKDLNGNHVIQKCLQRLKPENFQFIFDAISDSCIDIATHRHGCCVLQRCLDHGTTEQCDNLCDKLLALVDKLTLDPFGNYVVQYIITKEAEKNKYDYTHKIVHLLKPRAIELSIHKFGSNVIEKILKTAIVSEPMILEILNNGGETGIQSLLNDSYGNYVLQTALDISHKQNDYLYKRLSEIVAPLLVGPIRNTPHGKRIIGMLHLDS

How did the Kd turn out when B1 was run?
Its Kd is 91.8 nM.

For B2, which Kd is on record?
The Kd was 6.59 nM.

For B3, which Kd is on record?
Its Kd is 198 nM.

For B4, which Kd is on record?
The Kd was 342 nM.

How did the Kd turn out when B5 was run?
Its Kd is 50.2 nM.

For B6, which Kd is on record?
Its Kd is 18 nM.

Which Kd does the source give for B7 here?
Its Kd is 10.1 nM.

B8 was tested. Which Kd did it give?
The Kd was 190 nM.

For B9, which Kd is on record?
The Kd was 38.9 nM.

B10 was tested. Which Kd did it give?
The Kd was 7.13 nM.

How did the Kd turn out when B11 was run?
The Kd was 1010 nM.

Which Kd does the source give for B12 here?
Its Kd is 2.48 nM.

With B13 as the binder, how does the Kd read?
Its Kd is 126 nM.

For B14, which Kd is on record?
Its Kd is 56.4 nM.

B15 was tested. Which Kd did it give?
Its Kd is 402 nM.

How did the Kd turn out when B16 was run?
The Kd was 6.66 nM.

How did the Kd turn out when B17 was run?
The Kd was 849 nM.

For B18, which Kd is on record?
Its Kd is 229 nM.

For B19, which Kd is on record?
The Kd was 14.7 nM.

How did the Kd turn out when B20 was run?
The Kd was 27.2 nM.

How did the Kd turn out when B21 was run?
The Kd was 55.6 nM.

For B22, which Kd is on record?
The Kd was 425 nM.

For B23, which Kd is on record?
The Kd was 233 nM.

For B24, which Kd is on record?
Its Kd is 2.4 nM.

UCUCUUUCACACUAUAUAUCUCUU (ssRNA) [Id_i_S1_P3E.4_K3.3_C3.2_[C-2T]_[T-1C]_H3.3_A3.1_F3.1_T3.2] was tested. Which Kd did it give?
Its Kd is > 2300 nM.

How did the Kd turn out when UCUCUUUAUGUAUAUAUAUCUCUU (ssRNA) [Id_ii_S1_P3E.2_K3.1_C3.2_[C-2T]_[T-1A]_H3.1_A3.1_F3.1_T3.2] was run?
The Kd was 8.02 nM.

For UCUCUUUGACACUAUAUAUCUCUU (ssRNA) [Id_i_S1_P3E.4_K3.3_C3.2_[C-2T]_[T-1G]_H3.3_A3.1_F3.1_T3.2], which Kd is on record?
The Kd was 2180 nM.

For UCUCUUUAUAUAUAUAUAUCUCUU (ssRNA) [Id_i_S1_P3E.3_K3.2_C3.2_[C-2T]_[T-1A]_H3.2_A3.1_F3.1_T3.2], which Kd is on record?
Its Kd is 439 nM.

UCUCUUACUGUAUAUAUAUCUCUU (ssRNA) [Id_i_S1_P3E.2_K3.1_C3.2_[C-2A]_[T-1C]_H3.1_A3.1_F3.1_T3.2] was tested. Which Kd did it give?
The Kd was 9.07 nM.

With UCUCUUAGUAUAUAUAUAUCUCUU (ssRNA) [Id_i_S1_P3E.3_K3.2_C3.2_[C-2A]_[T-1G]_H3.2_A3.1_F3.1_T3.2] as the binder, how does the Kd read?
The Kd was 576 nM.
